Assays:
[1] = biological target: HLA-A2.1 MHC class I molecules on T2 cells (human); assay: T2 cells pulsed with peptide, anti-HLA-A2.1 flow cytometry; Brefeldin A treatment: 4 hr
[2] = biological target: HLA-A2.1 MHC class I molecules on T2 cells (human); assay: T2 cells pulsed with peptide, anti-HLA-A2.1 flow cytometry; Brefeldin A treatment: Overnight
[3] = biological target: HLA-A2.1 MHC class I molecules on T2 cells (human); assay: T2 cells pulsed with peptide, anti-HLA-A2.1 flow cytometry; Brefeldin A treatment: 6 hr
[4] = biological target: HLA-A2.1 MHC class I molecules on T2 cells (human); assay: T2 cells pulsed with peptide, anti-HLA-A2.1 flow cytometry; Brefeldin A treatment: 0 hr
[5] = biological target: HLA-A2.1 MHC class I molecules on T2 cells (human); assay: T2 cells pulsed with peptide, anti-HLA-A2.1 flow cytometry; Brefeldin A treatment: 2 hr
[6] = biological target: HLA-A2.1 MHC class I molecules on T2 cells (human); assay: T2 cells pulsed with peptide, anti-HLA-A2.1 flow cytometry; Brefeldin A treatment: None

| Binder | binding score (HLA-A2.1 fluorescence on T2 cells) [1] | binding score (HLA-A2.1 fluorescence on T2 cells) [2] | binding score (HLA-A2.1 fluorescence on T2 cells) [3] | binding score (HLA-A2.1 fluorescence on T2 cells) [4] | binding score (HLA-A2.1 fluorescence on T2 cells) [5] | binding score (HLA-A2.1 fluorescence on T2 cells) [6] |
| --- | --- | --- | --- | --- | --- | --- |
| LLFLTPMEV (Synthetic nonamer) [CD19 peptide LLFLTPMEV (SEQ ID NO: 3)] | 880 | 453 | 573 | 770 | 924 | 556 |
| FIRAHTPYI (Synthetic nonamer) [CD20 peptide FIRAHTPYI (SEQ ID NO: 8)] | 192 | 250 | 154 | 232 | 215 | 167 |
| LLFFLLFLV [CD19 peptide LLFFLLFLV (SEQ ID NO: 5)] | 163 | 200 | 143 | 200 | 202 | 164 |
| TLAYLIFCL (Synthetic nonamer) [CD19 peptide TLAYLIFCL (SEQ ID NO: 2)] | 513 | 312 | 387 | 530 | 608 | 363 |
| AISGMILSI (Synthetic nonamer) [CD20 peptide AISGMILSI (SEQ ID NO: 7)] | 165 | 232 | 144 | 220 | 256 | 162 |
| KLMSPKLYV (Synthetic nonamer) [CD19 peptide KLMSPKLYV (SEQ ID NO: 4)] | 796 | 540 | 642 | 683 |  |  |
| RLLFFLLFL (Synthetic nonamer) [CD19 peptide RLLFFLLFL (SEQ ID NO: 1)] | 174 | 248 | 152 | 167 | 202 |  |

Next, values leading:

| binding score (HLA-A2.1 fluorescence on T2 cells) [1] | binding score (HLA-A2.1 fluorescence on T2 cells) [2] | binding score (HLA-A2.1 fluorescence on T2 cells) [3] | binding score (HLA-A2.1 fluorescence on T2 cells) [4] | binding score (HLA-A2.1 fluorescence on T2 cells) [5] | binding score (HLA-A2.1 fluorescence on T2 cells) [6] | Binder |
| --- | --- | --- | --- | --- | --- | --- |
| 762 | 410 | 770 | 672 | 703 | 637 | SLFLGILSV (Synthetic nonamer) [CD20 peptide SLFLGILSV (SEQ ID NO: 6)] |
| 180 | 195 | 128 | 212 | 200 | 172 | SLNFIRAHT (Synthetic nonamer) [CD20 peptide SLNFIRAHT (SEQ ID NO: 9)] |
| 199 | 277 | 127 | 216 | 218 | 172 | SHFLKMESL (Synthetic nonamer) [CD20 peptide SHFLKMESL (SEQ ID NO: 11)] |
| 227 | 225 | 190 | 245 | 291 | 215 | LKMESLNFI (Synthetic nonamer) [CD20 peptide LKMESLNFI (SEQ ID NO: 10)] |

Reference: patent US20050048071A1 (RUSH UNIVERSITY MEDICAL CENTER, published 2005)
